Assay results published in US20240336672A1.

Experiments:
Details in all cases: remark: other sources report otherwise
[1] = target: T1, SARS-CoV-2 Spike (S) protein on cells (S-Flow assay) (SARS-CoV-2), P0DTC2; assay: S-Flow flow cytometry, spike-expressing cells
[2] = target: SARS-CoV-2 RBD domain, Wuhan (SARS-CoV-2); assay: ELISA
[3] = target: SARS-CoV-2 RBD domain, Wuhan (SARS-CoV-2); assay: competition ELISA vs bio-Cv2.3235
[4] = target: T1, SARS-CoV-2 Spike (S) protein on cells …; assay: flow cytometry (Mock 2.5)
[5] = target: SARS-CoV-2 RBD domain, Wuhan (SARS-CoV-2); assay: ELISA; set-up: unit not given beside the values
[6] = target: SARS-CoV-2 RBD domain, Wuhan (SARS-CoV-2); assay: RBD-ACE2 competition ELISA; set-up: unit not given beside the values
[7] = target: SARS-CoV-2 RBD domain, Wuhan (SARS-CoV-2); assay: competition ELISA vs bio-Cv2.5213
[8] = target: SARS-CoV-2 RBD domain, Wuhan (SARS-CoV-2); assay: competition ELISA vs bio-Cv2.1169
[9] = target: SARS-CoV-2 RBD domain, Wuhan (SARS-CoV-2); assay: competition ELISA, biotinylated RBD to immobilized ACE2 ectodomain
[10] = target: SARS-CoV-2 RBD domain, Wuhan (SARS-CoV-2); assay: ELISA; set-up: unit not given beside the values; remark: listed apart in the source
[11] = target: SARS-CoV-2 RBD domain, Wuhan (SARS-CoV-2); assay: RBD/ACE2 blocking ELISA
[12] = target: SARS-CoV-1 Spike ectodomain (SARS-CoV-1), P59594; assay: ELISA, coated antigen
[13] = target: CoV-MERS Spike ectodomain (MERS-CoV), K9N5Q8; assay: ELISA, coated antigen
[14] = target: SARS-CoV-2 RBD domain, Wuhan (SARS-CoV-2); assay: ELISA, coated antigen
[15] = target: SARS-CoV-2 RBD domain, Wuhan (SARS-CoV-2); assay: ELISA; set-up: unit not given beside the values; remark: listed apart in the source
[16] = target: SARS-CoV-2 RBD domain, Wuhan (SARS-CoV-2); assay: SPR (Biacore), antibody coupled to CM5 chip, viral protein as analyte
[17] = target: SARS-CoV-2 RBD domain, Wuhan (SARS-CoV-2); assay: SPR (Biacore), antibody immobilised
[18] = target: T1, SARS-CoV-2 Spike (S) protein on cells …; assay: flow cytometry, transfected cells
[19] = target: SARS-CoV-2 RBD domain, Wuhan (SARS-CoV-2); assay: competition ELISA vs bio-Cv2.3194
[20] = target: SARS-CoV-2 RBD domain, Wuhan (SARS-CoV-2); assay: SPR (Biacore), IgG immobilized, viral protein as analyte
[21] = target: SARS-CoV-2 RBD domain, Wuhan (SARS-CoV-2); assay: competition ELISA vs bio-Cv2.1353
[22] = target: SARS-CoV-2 RBD domain, Wuhan (SARS-CoV-2); assay: RBD-ACE2 competition ELISA; set-up: unit not given beside the values; remark: listed apart in the source

B1: Cv2.3194 (recombinant human IgG1) (antibody)
heavy: EVQLVESGGGLIQPGGSLRLSCAASGITVTSNYMSWVRQAPGKGLEWVSVIYPGGSTFYADSVKGRFTISRDNSKNTLYLQMNSLRAEDTAVYYCARDLVVYGMDVWGQGTTVTVSSASTKGPSVFPLAPSSKSTSGGTAALGCLVKDYFPEPVTVSWNSGALTSGVHTFPAVLQSSGLYSLSSVVTVPSSSLGTQTYICNVNHKPSNTKVDKKVEPKSCDKTHTCPPCPAPELLGGPSVFLFPPKPKDTLMISRTPEVTCVVVDVSHEDPEVKFNWYVDGVEVHNAKTKPREEQYNSTYRVVSVLTVLHQDWLNGKEYKCKVSNKALPAPIEKTISKAKQPREPQVYTLPPSRDELTKNQVSLTCLVKGFYPSDIAVEWESNGQPENNYKTTPPVLDSDGSFFLYSKLTVDKSRWQQGNVFSCSVMHEALHNHYTQKSLSLSPGK
light: EIVLTQSPGTLSLSPGERATLSCRASQSVSSSYLAWYQQKPGQAPRLLIYGASSRATGIPGRFSGSGSGTDFTLTISRLEPEDFAIYYCQQGVTFGGGTKVEIKRTVAAPSVFIFPPSDEQLKSGTASVVCLLNNFYPREAKVQWKVDNALQSGNSQESVTEQDSKDSTYSLSSTLTLSKADYEKHKVYACEVTHQGLSSPVTKSFNRGEC
B1 was tested, and the S-Flow (%) [1] was 94%, the S-Flow (MFI) [1] was 260000 MFI and the OD405nm [2] was 3.4. The % inhibition (competition) [3] was 74, the log10 ΔgMFI [4] was 4.4 and the AUC (RBD bind.) [5] was 12. The AUC (RBD block.) [6] was 183, the % inhibition (competition) [7] was 70 and the % inhibition (competition) [8] was 56. The IC50 [9] was 0.099 µg/mL, the IC90 [9] was 0.185 µg/mL and the AUC (RBD bind.) [10] was 13. For the same binder, the % binding inhibition [11] was 96%, the ELISA OD [12] was 0.1 OD and the ELISA OD [13] was 0.1 OD. It also gave an ELISA OD [14] of 3.6 OD, an AUC [15] of 3 and a Kd [16] of under 1 pM. It also gave a Kd [17] of under 100 pM, a log10 ΔgMFI [18] of 4 and a % inhibition (competition) [19] of 72. For the same binder, the Kd [20] was 6.27 pM, the koff [20] was 3.06e-06 s⁻¹ and the kon [20] was 487000 M⁻¹ s⁻¹. For the same binder, the % inhibition (competition) [21] was 65 and the AUC (RBD block.) [22] was 365.
